# ± gives the uncertainty stated by the source.
# B1: RNA-binding E3 ubiquitin-protein ligase MEX3C, residues 325 to 391; numbered along this chain, Q5U5Q3 (parent)
# chain: GQTTVQVRVPYRVVGLVVGPKGATIKRIQQQTHTYIVTPSRDKEPVFEVTGMPENVDRAREEIEMHI
# B2: Histone-lysine N-methyltransferase 2A, residues 1148 to 1194; numbered along this chain, Q03164 (parent)
# chain: KGRRSRRCGQCPGCQVPEDCGVCTNCLDKPKFGGRNIKKQCCKMRKC
# Variants of: B1
# Experiment: abundance fitness (aPCA) (normalised: wild type 0, dead -1); higher = more abundant; growth selection in yeast, the domain comes from the species named
# Settings: Homo sapiens
row,Variant,abundance fitness
1,GPTTVQVRVPYRVVGLVVGPKGATIKRIQQQTHTYIVTPSRDKEPVFEVTGMPENVDRAREEIEMHI,-0.181 ± 0.082
2,GYTTVQVRVPYRVVGLVVGPKGATIKRIQQQTHTYIVTPSRDKEPVFEVTGMPENVDRAREEIEMHI,-0.047 ± 0.12
3,GETTVQVRVPYRVVGLVVGPKGATIKRIQQQTHTYIVTPSRDKEPVFEVTGMPENVDRAREEIEMHI,-0.022 ± 0.089
4,GFTTVQVRVPYRVVGLVVGPKGATIKRIQQQTHTYIVTPSRDKEPVFEVTGMPENVDRAREEIEMHI,0.057 ± 0.088
5,GDTTVQVRVPYRVVGLVVGPKGATIKRIQQQTHTYIVTPSRDKEPVFEVTGMPENVDRAREEIEMHI,-0.155 ± 0.18
6,GRTTVQVRVPYRVVGLVVGPKGATIKRIQQQTHTYIVTPSRDKEPVFEVTGMPENVDRAREEIEMHI,-0.208 ± 0.053
7,GKTTVQVRVPYRVVGLVVGPKGATIKRIQQQTHTYIVTPSRDKEPVFEVTGMPENVDRAREEIEMHI,0.145 ± 0.089
8,GSTTVQVRVPYRVVGLVVGPKGATIKRIQQQTHTYIVTPSRDKEPVFEVTGMPENVDRAREEIEMHI,-0.356 ± 0.098
9,GITTVQVRVPYRVVGLVVGPKGATIKRIQQQTHTYIVTPSRDKEPVFEVTGMPENVDRAREEIEMHI,-0.174 ± 0.18
10,GGTTVQVRVPYRVVGLVVGPKGATIKRIQQQTHTYIVTPSRDKEPVFEVTGMPENVDRAREEIEMHI,-0.403 ± 0.073
11,GHTTVQVRVPYRVVGLVVGPKGATIKRIQQQTHTYIVTPSRDKEPVFEVTGMPENVDRAREEIEMHI,0.017 ± 0.12
12,GATTVQVRVPYRVVGLVVGPKGATIKRIQQQTHTYIVTPSRDKEPVFEVTGMPENVDRAREEIEMHI,-0.409 ± 0.1
13,GMTTVQVRVPYRVVGLVVGPKGATIKRIQQQTHTYIVTPSRDKEPVFEVTGMPENVDRAREEIEMHI,-0.001 ± 0.13
14,GWTTVQVRVPYRVVGLVVGPKGATIKRIQQQTHTYIVTPSRDKEPVFEVTGMPENVDRAREEIEMHI,-0.302 ± 0.081
15,GVTTVQVRVPYRVVGLVVGPKGATIKRIQQQTHTYIVTPSRDKEPVFEVTGMPENVDRAREEIEMHI,-0.069 ± 0.078
16,GLTTVQVRVPYRVVGLVVGPKGATIKRIQQQTHTYIVTPSRDKEPVFEVTGMPENVDRAREEIEMHI,0.017 ± 0.06
17,GCTTVQVRVPYRVVGLVVGPKGATIKRIQQQTHTYIVTPSRDKEPVFEVTGMPENVDRAREEIEMHI,-0.148 ± 0.093
18,GNTTVQVRVPYRVVGLVVGPKGATIKRIQQQTHTYIVTPSRDKEPVFEVTGMPENVDRAREEIEMHI,-0.061 ± 0.092
19,GQTTVCVRVPYRVVGLVVGPKGATIKRIQQQTHTYIVTPSRDKEPVFEVTGMPENVDRAREEIEMHI,-0.028 ± 0.21
20,GQTTVEVRVPYRVVGLVVGPKGATIKRIQQQTHTYIVTPSRDKEPVFEVTGMPENVDRAREEIEMHI,-0.218 ± 0.18
21,GQTTVDVRVPYRVVGLVVGPKGATIKRIQQQTHTYIVTPSRDKEPVFEVTGMPENVDRAREEIEMHI,-0.657 ± 0.25
22,GQTTVAVRVPYRVVGLVVGPKGATIKRIQQQTHTYIVTPSRDKEPVFEVTGMPENVDRAREEIEMHI,-0.1 ± 0.072
23,GQTMVQVRVPYRVVGLVVGPKGATIKRIQQQTHTYIVTPSRDKEPVFEVTGMPENVDRAREEIEMHI,-0.751 ± 0.23
24,GQTLVQVRVPYRVVGLVVGPKGATIKRIQQQTHTYIVTPSRDKEPVFEVTGMPENVDRAREEIEMHI,-0.756 ± 0.088
25,GQTGVQVRVPYRVVGLVVGPKGATIKRIQQQTHTYIVTPSRDKEPVFEVTGMPENVDRAREEIEMHI,-0.646 ± 0.13

row,Variant,abundance fitness
1,GQTWVQVRVPYRVVGLVVGPKGATIKRIQQQTHTYIVTPSRDKEPVFEVTGMPENVDRAREEIEMHI,-0.832 ± 0.19
2,GQTDVQVRVPYRVVGLVVGPKGATIKRIQQQTHTYIVTPSRDKEPVFEVTGMPENVDRAREEIEMHI,-0.631 ± 0.14
3,GQTSVQVRVPYRVVGLVVGPKGATIKRIQQQTHTYIVTPSRDKEPVFEVTGMPENVDRAREEIEMHI,-0.757 ± 0.13
4,GQTAVQVRVPYRVVGLVVGPKGATIKRIQQQTHTYIVTPSRDKEPVFEVTGMPENVDRAREEIEMHI,-0.523 ± 0.12
5,GQTCVQVRVPYRVVGLVVGPKGATIKRIQQQTHTYIVTPSRDKEPVFEVTGMPENVDRAREEIEMHI,-0.718 ± 0.2
6,GQTIVQVRVPYRVVGLVVGPKGATIKRIQQQTHTYIVTPSRDKEPVFEVTGMPENVDRAREEIEMHI,-0.622 ± 0.18
7,GQTHVQVRVPYRVVGLVVGPKGATIKRIQQQTHTYIVTPSRDKEPVFEVTGMPENVDRAREEIEMHI,-0.38 ± 0.12
8,GQTKVQVRVPYRVVGLVVGPKGATIKRIQQQTHTYIVTPSRDKEPVFEVTGMPENVDRAREEIEMHI,-0.414 ± 0.072
9,GQTNVQVRVPYRVVGLVVGPKGATIKRIQQQTHTYIVTPSRDKEPVFEVTGMPENVDRAREEIEMHI,-0.812 ± 0.22
10,GQTVVQVRVPYRVVGLVVGPKGATIKRIQQQTHTYIVTPSRDKEPVFEVTGMPENVDRAREEIEMHI,-0.477 ± 0.082
11,GQTRVQVRVPYRVVGLVVGPKGATIKRIQQQTHTYIVTPSRDKEPVFEVTGMPENVDRAREEIEMHI,-0.425 ± 0.078
12,GQTFVQVRVPYRVVGLVVGPKGATIKRIQQQTHTYIVTPSRDKEPVFEVTGMPENVDRAREEIEMHI,-0.881 ± 0.26
13,GQTEVQVRVPYRVVGLVVGPKGATIKRIQQQTHTYIVTPSRDKEPVFEVTGMPENVDRAREEIEMHI,-1.06 ± 0.24
14,AQTTVQVRVPYRVVGLVVGPKGATIKRIQQQTHTYIVTPSRDKEPVFEVTGMPENVDRAREEIEMHI,-0.27 ± 0.44
15,VQTTVQVRVPYRVVGLVVGPKGATIKRIQQQTHTYIVTPSRDKEPVFEVTGMPENVDRAREEIEMHI,-0.283 ± 0.3
16,DQTTVQVRVPYRVVGLVVGPKGATIKRIQQQTHTYIVTPSRDKEPVFEVTGMPENVDRAREEIEMHI,-0.136 ± 0.066
17,RQTTVQVRVPYRVVGLVVGPKGATIKRIQQQTHTYIVTPSRDKEPVFEVTGMPENVDRAREEIEMHI,-0.022 ± 0.31
18,SQTTVQVRVPYRVVGLVVGPKGATIKRIQQQTHTYIVTPSRDKEPVFEVTGMPENVDRAREEIEMHI,-0.094 ± 0.085
19,GQTTWQVRVPYRVVGLVVGPKGATIKRIQQQTHTYIVTPSRDKEPVFEVTGMPENVDRAREEIEMHI,-0.83 ± 0.19
20,GQTTEQVRVPYRVVGLVVGPKGATIKRIQQQTHTYIVTPSRDKEPVFEVTGMPENVDRAREEIEMHI,-0.667 ± 0.14
21,GQTTQQVRVPYRVVGLVVGPKGATIKRIQQQTHTYIVTPSRDKEPVFEVTGMPENVDRAREEIEMHI,-0.294 ± 0.092
22,GQTTLQVRVPYRVVGLVVGPKGATIKRIQQQTHTYIVTPSRDKEPVFEVTGMPENVDRAREEIEMHI,-0.016 ± 0.079
23,GQTTCQVRVPYRVVGLVVGPKGATIKRIQQQTHTYIVTPSRDKEPVFEVTGMPENVDRAREEIEMHI,-0.475 ± 0.11
24,GQTTRQVRVPYRVVGLVVGPKGATIKRIQQQTHTYIVTPSRDKEPVFEVTGMPENVDRAREEIEMHI,-0.336 ± 0.062
25,GQTTSQVRVPYRVVGLVVGPKGATIKRIQQQTHTYIVTPSRDKEPVFEVTGMPENVDRAREEIEMHI,-0.74 ± 0.13

row,Variant,abundance fitness
1,GQTTAQVRVPYRVVGLVVGPKGATIKRIQQQTHTYIVTPSRDKEPVFEVTGMPENVDRAREEIEMHI,-0.34 ± 0.066
2,GQTTDQVRVPYRVVGLVVGPKGATIKRIQQQTHTYIVTPSRDKEPVFEVTGMPENVDRAREEIEMHI,-1.05 ± 0.41
3,GQTTGQVRVPYRVVGLVVGPKGATIKRIQQQTHTYIVTPSRDKEPVFEVTGMPENVDRAREEIEMHI,-0.387 ± 0.053
4,GQTTKQVRVPYRVVGLVVGPKGATIKRIQQQTHTYIVTPSRDKEPVFEVTGMPENVDRAREEIEMHI,-0.18 ± 0.13
5,GQTTIQVRVPYRVVGLVVGPKGATIKRIQQQTHTYIVTPSRDKEPVFEVTGMPENVDRAREEIEMHI,0.2 ± 0.054
6,GQTTMQVRVPYRVVGLVVGPKGATIKRIQQQTHTYIVTPSRDKEPVFEVTGMPENVDRAREEIEMHI,-0.452 ± 0.21
7,GQTTTQVRVPYRVVGLVVGPKGATIKRIQQQTHTYIVTPSRDKEPVFEVTGMPENVDRAREEIEMHI,-0.478 ± 0.15
8,GQTTHQVRVPYRVVGLVVGPKGATIKRIQQQTHTYIVTPSRDKEPVFEVTGMPENVDRAREEIEMHI,-0.822 ± 0.2
9,GQTTFQVRVPYRVVGLVVGPKGATIKRIQQQTHTYIVTPSRDKEPVFEVTGMPENVDRAREEIEMHI,-0.363 ± 0.12
10,GQGTVQVRVPYRVVGLVVGPKGATIKRIQQQTHTYIVTPSRDKEPVFEVTGMPENVDRAREEIEMHI,-0.519 ± 0.065
11,GQATVQVRVPYRVVGLVVGPKGATIKRIQQQTHTYIVTPSRDKEPVFEVTGMPENVDRAREEIEMHI,-0.799 ± 0.11
12,GQMTVQVRVPYRVVGLVVGPKGATIKRIQQQTHTYIVTPSRDKEPVFEVTGMPENVDRAREEIEMHI,-0.556 ± 0.097
13,GQNTVQVRVPYRVVGLVVGPKGATIKRIQQQTHTYIVTPSRDKEPVFEVTGMPENVDRAREEIEMHI,-0.672 ± 0.16
14,GQCTVQVRVPYRVVGLVVGPKGATIKRIQQQTHTYIVTPSRDKEPVFEVTGMPENVDRAREEIEMHI,-0.256 ± 0.11
15,GQYTVQVRVPYRVVGLVVGPKGATIKRIQQQTHTYIVTPSRDKEPVFEVTGMPENVDRAREEIEMHI,-0.296 ± 0.18
16,GQITVQVRVPYRVVGLVVGPKGATIKRIQQQTHTYIVTPSRDKEPVFEVTGMPENVDRAREEIEMHI,0.306 ± 0.094
17,GQLTVQVRVPYRVVGLVVGPKGATIKRIQQQTHTYIVTPSRDKEPVFEVTGMPENVDRAREEIEMHI,-0.163 ± 0.06
18,GQDTVQVRVPYRVVGLVVGPKGATIKRIQQQTHTYIVTPSRDKEPVFEVTGMPENVDRAREEIEMHI,-0.45 ± 0.1
19,GQQTVQVRVPYRVVGLVVGPKGATIKRIQQQTHTYIVTPSRDKEPVFEVTGMPENVDRAREEIEMHI,-0.258 ± 0.1
20,GQSTVQVRVPYRVVGLVVGPKGATIKRIQQQTHTYIVTPSRDKEPVFEVTGMPENVDRAREEIEMHI,-0.309 ± 0.066
21,GQHTVQVRVPYRVVGLVVGPKGATIKRIQQQTHTYIVTPSRDKEPVFEVTGMPENVDRAREEIEMHI,-0.252 ± 0.11
22,GQETVQVRVPYRVVGLVVGPKGATIKRIQQQTHTYIVTPSRDKEPVFEVTGMPENVDRAREEIEMHI,-0.385 ± 0.079
23,GQWTVQVRVPYRVVGLVVGPKGATIKRIQQQTHTYIVTPSRDKEPVFEVTGMPENVDRAREEIEMHI,-1.1 ± 0.23
24,GQVTVQVRVPYRVVGLVVGPKGATIKRIQQQTHTYIVTPSRDKEPVFEVTGMPENVDRAREEIEMHI,0.008 ± 0.052
25,GQPTVQVRVPYRVVGLVVGPKGATIKRIQQQTHTYIVTPSRDKEPVFEVTGMPENVDRAREEIEMHI,-0.787 ± 0.24

# Variants of: B2
# Experiment: as above
# Settings: Homo sapiens
row,Variant,abundance fitness
1,KGRRSRRCGQCPGCQVPEDCGVCTNCLDKPKFGGRNIKKQCCKMRKP,-0.789 ± 0.2
2,KGRRSRRCGQCPGCQVPEDCGVCTNCLDKPKFGGRNIKKQCCKMRKY,-0.967 ± 0.16
3,KGRRSRRCGQCPGCQVPEDCGVCTNCLDKPKFGGRNIKKQCCKMRKR,-0.925 ± 0.15
4,KGRRSRRCGQCPGCQVPEDCGVCTNCLDKPKFGGRNIKKQCCKMRKT,-0.884 ± 0.36
5,KGRRSRRCGQCPGCQVPEDCGVCTNCLDKPKFGGRNIKKQCCKMRKF,-0.52 ± 0.16
6,KGRRSRRCGQCPGCQVPEDCGVCTNCLDKPKFGGRNIKKQCCKMRKW,-0.527 ± 0.48
7,KGRRSRRCGQCPGCQVPEDCGVCTNCLDKPKFGGRNIKKQCCKMRKS,-0.619 ± 0.13

# Source: the Human Domainome abundance scans (Beltran et al. 2025)
